Measured values: US20220403048A1, “BINDING MOLECULES TO ARGINASE II [ARG2]” (Cancer Research Technology Limited, priority 2019, published 2022)

Biological target: T1, THP-1 lysate derived human trimeric ARG2 (Homo sapiens, UniProt P78540)
T1 construct: expressed in transfected cells; host or cells: THP-1 cells overexpressing human ARG2 (cell lysate)
T1 sequence (P78540 23-354): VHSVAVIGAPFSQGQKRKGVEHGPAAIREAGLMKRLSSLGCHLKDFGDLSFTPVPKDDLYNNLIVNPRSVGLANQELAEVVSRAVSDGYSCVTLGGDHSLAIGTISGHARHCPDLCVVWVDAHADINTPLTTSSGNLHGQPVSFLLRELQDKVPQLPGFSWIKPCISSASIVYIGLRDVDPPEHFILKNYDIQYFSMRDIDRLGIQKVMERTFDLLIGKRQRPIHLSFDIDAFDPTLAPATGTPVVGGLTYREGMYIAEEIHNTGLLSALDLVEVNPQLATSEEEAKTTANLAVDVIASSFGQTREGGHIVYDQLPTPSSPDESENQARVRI
Assay: ELISA binding to THP-1 lysate derived human ARG2
Conditions: biotinylated recombinant human IgG1, FIG. 6
Protocol: C0020187 and C0020065 IgGs were tested for their ability to bind to mammalian expressed human ARG2 produced in transfected THP-1 cells. Lysates of human ARG2 transfected THP-1 cells were prepared and binding to these lysates measured using an ELISA.
Cell lysates were prepared from THP-1 cells overexpressing human ARG2 and from wild type THP-1 cells. Between 600,000-1,000,000 cells were suspended in 1 ml tris-buffered saline (25 mM tris+150 mM sodium chloride in dH2O, pH 7.4) and cell lysates prepared using QIAshredders (QIAgen, UK; cat: 79654).
For the ELISA, maxisorp white plates (Nunc; cat: 437796) were coated overnight at 4° C. with rabbit anti-human ARG2 antibody (Abcam, ab137069) at 1 μg/ml in PBS. The next day, the plate was washed with PBS and blocked with casein blocker (Thermo Scientific, 37528). […]
The blocked ELISA plate was washed with PBS and 50 μl of the pre-incubation mixtures were transferred to the ELISA plate and incubated for 90 minutes at room temperature. […] Next, 100 μl PICO ELISA substrate (Thermo Scientific, 37070) was added to each well, the plate was incubated for 1 minute at room temperature in the dark before being read for luminescence using the Envision plate reader. Data were analysed using GraphPad Prism. […]

- binding to THP-1 lysate derived human trimeric ARG2: strong binding
B1: C0020065: anti-ARG2 antibody, alternate lead isolation clone, VH SEQ ID NO: 2, VL SEQ ID NO: 7 (antibody, listed as Homo sapiens, V domains shown)
VH: GVNLRESGGGVVQPGRSLRLSCAASGFTFSSYAMHWVRQAPGKGLEWVAVISYDGSNKYYVDSVKGRFTISRDNSKNTLYLQMNSLRAEDTAVYYCARDSSQLWFDYWGRGTLVTVSS
VL: QSVVTQPPSVSGAPGQRVTISCTGSSSNIGTGYDVHWYQQLPGTAPKLLIYGNSNRPSGVPDRFSGSKSGTSASLAITGLQAEDEADYYCQSYDSSLSGSVVFGGGTQLTVL
modifications: C0020065
